Data on 4 molecules can be found in paper PMC12212138, “Crystal structure and mutagenesis of a nucleic acid–binding BRCT domain in human PARP4”.

Data set [1] concerns the target T1, PARP4 BRCT-WGR-CAT WT (human, UniProt Q9UKK3 1-573).
T1 sequence: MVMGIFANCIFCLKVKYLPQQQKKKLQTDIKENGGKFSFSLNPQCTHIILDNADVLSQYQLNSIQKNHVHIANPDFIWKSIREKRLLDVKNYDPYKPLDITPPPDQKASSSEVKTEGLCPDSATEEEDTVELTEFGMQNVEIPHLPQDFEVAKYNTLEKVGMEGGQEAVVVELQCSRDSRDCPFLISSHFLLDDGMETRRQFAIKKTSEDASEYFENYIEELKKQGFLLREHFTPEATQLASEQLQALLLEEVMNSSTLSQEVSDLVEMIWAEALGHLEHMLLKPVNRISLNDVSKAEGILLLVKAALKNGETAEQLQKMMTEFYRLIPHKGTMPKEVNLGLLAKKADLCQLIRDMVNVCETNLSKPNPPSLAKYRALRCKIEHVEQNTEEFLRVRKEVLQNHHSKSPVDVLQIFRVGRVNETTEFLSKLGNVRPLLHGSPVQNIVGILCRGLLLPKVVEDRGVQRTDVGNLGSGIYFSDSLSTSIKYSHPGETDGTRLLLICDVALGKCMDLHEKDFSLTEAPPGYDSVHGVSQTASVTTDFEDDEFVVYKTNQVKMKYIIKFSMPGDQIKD
As to the kind of experiment: FP; 15 nM probe; FP: 50 mM Tris pH 7.5, 50 mM NaCl, 1 mM MgCl2, 0.05% NP40, 2 mM DTT, 5% glycerol, 25 ug/ml BSA, room temp 30 min; EMSA: 50 mM Tris pH 7.5, 50 mM NaCl, 4% Ficoll PM400, 0.05% NP40, 2 mM DTT, 0-18 uM protein, room temp 30 min, gel at 4 C. The following applies: protein: recombinant, tags: N-terminal His-SUMO removed by TEV. For orientation: In EMSA bound probe runs differently from free probe, usually more slowly.

The target of a further data set is T2, PARP4 BRCT WT (human, UniProt Q9UKK3 1-100).
T2 sequence: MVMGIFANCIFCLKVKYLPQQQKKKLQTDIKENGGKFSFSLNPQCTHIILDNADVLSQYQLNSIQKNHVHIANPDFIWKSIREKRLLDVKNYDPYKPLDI
Kind of data set: FP; 3 nM probe; FP: 50 mM Tris pH 7.5, 50 mM NaCl, 1 mM MgCl2, 0.05% NP40, 2 mM DTT, 5% glycerol, 25 ug/ml BSA, room temp 30 min; EMSA: 50 mM Tris pH 7.5, 50 mM NaCl, 4% Ficoll PM400, 0.05% NP40, 2 mM DTT, 0-18 uM protein, room temp 30 min, gel at 4 C. The settings on record: protein: recombinant; tags: N-terminal His-SUMO removed by TEV; label: 5'-6-FAM; predicted intramolecular fold.

For data set [2], the target named is T1, PARP4 BRCT-WGR-CAT WT. As to the kind of experiment: EMSA; 20 nM probe; FP: 50 mM Tris pH 7.5, 50 mM NaCl, 1 mM MgCl2, 0.05% NP40, 2 mM DTT, 5% glycerol, 25 ug/ml BSA, room temp 30 min; EMSA: 50 mM Tris pH 7.5, 50 mM NaCl, 4% Ficoll PM400, 0.05% NP40, 2 mM DTT, 0-18 uM protein, room temp 30 min, gel at 4 C. The following applies: protein: recombinant; tags: N-terminal His-SUMO removed by TEV; label: 5'-6-FAM; single strand, predicted fold.

B1: Probe 1 (dsRNA)
RNA 1: GGCUGGCUUUAGCUCAGCGG
RNA 2: CCGCGGGCGCUCUCCAGCCCUCUU
A word on the Kd: it is the free concentration of one partner at which half of the binding sites on the other are occupied at equilibrium, for simple one-to-one binding. Take B1: the Kd with PARP4 BRCT-WGR-CAT WT [1] (label: 5'-6-FAM on strand 1, two-strand partial duplex) was determined as 25 ± 10 µM.

B2: vtRNA1-1 (structured_RNA)
RNA: GGCUGGCUUUAGCUCAGCGGUUACUUCGACAGUUCUUUAAUUGAAACAAGCAACCUGUCUGGGUUGUUCGAGACCCGCGGGCGCUCUCCAGUCCUUUU
As to B2, in the data set with PARP4 BRCT WT, the Kd was 13 ± 4 µM.

B3: vtRNA1-2 (structured_RNA)
RNA: GGCUGGCUUUAGCUCAGCGGUUACUUCGAGUACAUUGUAACCACCUCUCUGGGUGGUUCGAGACCCGCGGGUGCUUUCCAGCUCUUUU
Turning to B3, the Kd with PARP4 BRCT WT was 20 ± 5 µM.

B4: Probe 2 (structured_RNA)
RNA: GUCAUCAAACCACCUCUCUGGGUUGUUCGAGAC
On to B4, for which the Kd with PARP4 BRCT-WGR-CAT WT [1] (label: 5'-6-FAM, single strand, predicted fold) was 44 ± 13 µM; in the data set with PARP4 BRCT-WGR-CAT WT [2], 11 ± 3 µM.
